Assay results taken from the supplement of paper PMC12764529.

Test: folding stability dG unfold (combined trypsin and chymotrypsin); higher = more stable
Method: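 Folding stability of de novo designed mini-proteins (<80 aa, no Cys; designed by TrROS, TrMRF, ProteinMPNN and the joint model) was measured by cDNA display proteolysis with trypsin and chymotrypsin. Each protease was used at 11 concentrations in a threefold dilution series plus a no-protease condition. K50 was inferred by Bayesian fitting of sequencing counts, and dG unfold was derived against a sequence-predicted unfolded-state K50 (Tsuboyama et al. method). Sequences shown include variable-length N-terminal GS-type padding (SAGGSAGG...) inside a display construct carrying a PA tag. Rows were kept only if the AF2 dimer inter-PAE was >15, to exclude likely homo-oligomers.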

Folding stability dG unfold, < -1 kcal/mol:
SAGGSAGGSAGGAMPSDVLSTTTEPVAPTGSKTVSAPDAVVTVTLDPNTPVATTKTYGVSAGGSAGGSAGGS [r10_965_JUSTAS], SAGGSAASRVSVEKLPNGTVVTPVEVEVTTYKPYPSYDGTPTTVPVTTRTTRTVTTEGNVVTTEVASAGGSA [r15_883_JUSTAS], SAGGMTLEEVRALAQRVSREPLPGGGSRWVVTFPRPVPGGPAAPVTREIPVPADRPDATEEEVLARLVSAGG [r13_319_JUSTAS], SAGGSAGGSAGGGPGLSVTTTVLVPKDPSTSVLTVPLPPSATVTAVTPETNTVTVRTASSAGGSAGGSAGGS [r10_247_JUSTAS], SAGGSAGGSAGSPPDQTVTITTTVVTTETTTYPGTPGVTVPRTVVTTVPVTLPVTDPALLSAGGSAGGSAGG [r11_734_JUSTAS], SAMEISIDPIEDGPVRVTETYKFPGYTRITVKEIPKELLEKGVPLSELPNVPVLEEEIVEIPPPSPELKSAG [r14_856_JUSTAS], SAGGKDAIVNVVEIPIKIEVKTKTKNPILPDGIPIPETELEVKIEIPIKVKPVKVKLEKPGKIVSVEDSAGG [r13_148_TrMRF], SAGGSAGGSGSMNISPNVKKFTIKSTGTEEKAKEEAEKIKNSLPKNVPIEITFEPLDPKEFKKSAGGSAGGS [r12_744_JUSTAS], SAGGSAMKDFADAPGITDIHPYPDGTISIHFKSSPNARDKIVEALRKEGNIDIKTHPDHGMIRIKVSAGGSA [r15_554_TrROS], SAGGSAGGSAGGIYEKAVEFAKAKGGKDIPVKIKYPDGSVKTLNVDDLPDLKSENVEIVPSAGGSAGGSAGG [r7_863_TrMRF], SAGGSPVLVPLEREETDPARGTRTRTRAYRLPERDIALVEREEIPFAPDGTPLRRTSEEVVSLEELLESAGG [r13_807_JUSTAS], SAGGSAGGSAGVFWRIRMPGHTIPIPIEGDLNEAKDYIRDEMREHHGEPIDPDNIEIEIVSAGGSAGGSAGG [r11_1028_TrROS], SAGGSAGGSAGPPFEVVGVSRHGDSVTVLARNPDSDELVASTFTNGVIGSTAVIPSEEVGSAGGSAGGSAGG [r11_19_TrMRF], SAGSELLEKFPNVKVEEYEEEIEFSPEKKEEKEEVDETDGNTITYKKIEVLPEGKAKVKIYTAKLPEVSAGG [r19_125_JUSTAS], SAGGSAGGSALLPLPEDAVLEVPFPGTEEEAEVFAAELAKAFPVGEITLEKEPTSYRLVVRSAGGSAGGSAG [r3_73_TrMRF], SAGGSAGGSAGGNKIVIPFEELEEARENGDPHKARKLVRERGMDPEDVTIEIITPEALKESAGGSAGGSAGG [r7_7_TrROS], SAGGSAGGSAGVKPGQTIEVPGAKITVEEVDGKLVLKVEELPPPPAPEVEVKRYVSEEDLSAGGSAGGSAGG [r11_534_TrROS_Hall], SAGGSAGGSAGTEISLPSSLPDRPIETVPVEIVSPGPGDPRRETINVTRTPDRVLAVDRRSAGGSAGGSAGG [r11_21_JUSTAS], SAGGSAGGEKPLKVTIKVKEKRLTENGIPEEFEKEIVVEAPLEEATKLVKAIPKDKVVSVEVEGSAGGSAGG [r6_984_TrMRF], SAGGSAATVVDPSTGSTYTFTPEGSGYRITRTLVTPDPTSDAVSTAPTTELLPPSEIPPELLARLSSAGGSA [r15_703_JUSTAS], SAGMVLAPSTTETRLPGLRVRTETVVTTELAPDGRPTDVVAPTTTVTVTPPAPPPVFTEESVAAAFELESAG [r14_442_JUSTAS], SAGGMEEIAEKLPVTKIETLEVDPEPPVVKVKLTLKDESGTEKEIELTIELPPEPLPVPKFPPERILLSAGG [r13_608_JUSTAS], SAGGSLEEIADELAQKPGFDEVKIDVWKPPNGNFMLSVHNKENNRELQIPLPPNWKPVGTYELPVKSAGGSA [r2_74_TrROS], SAGGMIVLEFTDPSELEKLEEKVEEIKEELIKEGIKPPNVEIKVTRTTRKLPNGTERYTAPVSIKLPSAGGS [r16_591_JUSTAS], SAVKVEEKDDVTIKTYTEPEGGLELVETIDKNGNLIAKTEIKVERKPDAKGNLYVTKVSTKTTVLNPNPISA [r9_262_JUSTAS], SMPTTVLGSSPSVLPDGSVRYPVAVRRYPEYGVLVEETVTYFPGSGKFVPERRVEIPPDNPAALEWVRRESA [r9_980_JUSTAS], SAGGSAGGPPPLIVTIKLEHKREKPNGEPEKRKHEIIVDAPNEQADKLAKKMPPDNVEDVEIAKSAGGSAGG [r6_985_TrROS], SADWYYWKNPKDGKEHTVDPEELSPEFAKKGIEPEEPVPPVINIDVDSAEQADELADEFPNKVQVQPNGSAG [r14_638_TrROS], SAGGSAGGSAGPKWKTINFPIDLKPGQSAKEIAKKFAEANPDMEIDGFNPERGWASITVPSAGGSAGGSAGG [r11_465_TrROS], SAGGSAGGMITDADGNAFEVASAEPFELANGEPVIRFRFKGSGEIRTVPAADIPDGIPEEAKFESAGGSAGG [r6_370_TrMRF], SAGGSAGGMKTIPLPGWTPEEFREVIKKHGGTFTIERPGGEKVTVDFTPDSEPPPEEPHTLIISSAGGSAGG [r6_304_JUSTAS], SAGGSAGGSAGGSGELTMMMVEPNPDGRVKVRTFKIELPPGGLKIDEVEEKTIPPEDAKSAGGSAGGSAGGS [r4_389_TrROS], SAGGSAGGSSQEIQKRIQDRLRPRGPNRKPTPLEFTPKNGTITIKWKNPWHRKALKELPGIEPSAGGSAGGS [r12_623_TrROS], SAGGSAGGSAGGKIEVDVETERHDGRPYYEVEIRHPDNGKPVEIPMPMNNPEEALKAAKSAGGSAGGSAGGS [r10_271_TrROS], SASDEDQKKQQEQQKPPIKPPEFPVKLNGKKIEKIRFNPPTDRIWFEWPNGKEIPIDPGMSLEEILKKISAG [r14_59_TrROS], SAGGSAGGSAGMPFKITKVTPDGKITIYDGGNPITIPPGSDHIKIEFGGGTKEIKIPPGMSAGGSAGGSAGG [r11_647_TrROS], SAGGRGPGLPVSERKIVETRDLDPDEVSEEEIAERIKEENPDAVVEELEVDTKESKAVFKIKVKKLESAGGS [r8_202_JUSTAS], GMRPVTATIEIGPNGKLTLQPAVGPSTVVPVKSKEEGIAVVKELVPPDRPITLTFYEKSKKISTEPIEIPPS [r1_276_JUSTAS], SAGGSAGGSAGGSPEELAAAIRAEGREAEIEVTPDEVTIRLTAPDGRRSTLTVPRAALASAGGSAGGSAGGS [r10_1029_JUSTAS], SAGGSAGGSAMPEEEKPPIVRTVVLQADGEPIVLTSKPDEEIKLPPSLANAVVLEEEVSPGLSAGGSAGGSA [r18_415_JUSTAS], SAGGSAGGSAGGMRISIHHPKNGNPRHIPIDDIRNLPGPYKIHVEGPNPELAKEFLEQFSAGGSAGGSAGGS [r10_419_TrROS], SAGGSAGGSAGGSMVTTKDPNSPVTYTLVPRPTPEELVVKTTTNPDGTPTVTLLPASLLSAGGSAGGSAGGS [r4_434_JUSTAS], SAGGSAGGSAGGGMTVEEDPSSNIVTERIEYPDSIVTITRKRTPNPSWVTLATTTTPLGSAGGSAGGSAGGS [r10_840_JUSTAS], SAGGGWEKIPITPNDKNQAKEIADEFADKLQQDPGIPKEVEIDVQPPPNNQYWIEVEYPGKKLEIPISAGGS [r16_356_TrROS], SAGGSAGGSAGPKPVMWRIEFDNPDNGQKQEITIMIPPDDPEQAEEIAKKIGPNVKIEPVSAGGSAGGSAGG [r11_250_TrROS], SAGGSAGGSMPVTRPVATLPGPVTLYETTSPGERRLVRVTETPLPTPEPRTEVRLTVEVRPVGSAGGSAGGS [r12_353_JUSTAS], SAGGSAGGSAGGTIKELAKEAAKKNPGWVPIRIPLPNGNPWKIRVQVDEPGKNRIEIEPSAGGSAGGSAGGS [r10_395_TrROS], VSPEEKEKLEKLAAEPKPIKRTLEITTVKSEGPVELYVFTKKYFVPGKGEEVGEEVVVVPPEEVEELLAELS [r1_415_JUSTAS], SAGGSAGGSAGGTISFPTSSGLIKVEDMTIEEAKEKLKKENPNAKVIKLPTPNVYLIEVKSAGGSAGGSAGG [r7_370_JUSTAS], SAGGSAGGSAGGGFEITLPDKPIKVLEARFIPEKKLVEVLAEHPDGVLVRGVFPPELKLGSAGGSAGGSAGG [r7_427_TrMRF], SAGGSAGGSATPTPGDDYVYLTEESPDGRTIRYPETGSTIYIPADVPVNLKVNPVRGPDGVPESAGGSAGGS [r20_105_JUSTAS], SANKFSPEEYAEWMIRTARRQVKENRQQGDPEKPKKVTIHFWEEHFPPYRKRIKKEAKEDGLPVEIEPPSAG [r14_908_TrROS], SAGGSAGGSQKITIEWHKPGAWRIRIPGNGRERHLPMDKPLEEIANTAEKKFPNIPVEIERVKSAGGSAGGS [r12_423_TrROS], EPEYVVFVDINPVFTRVDENGNVLEEFPRKVPYTGPGKDPEKVREELEREYGPPVKILKTLPKSEVDAGLLS [r1_493_JUSTAS], SAGGSAGGEVEEEALKVAEELRREGKTGPVEKTVDIVVKTPENVPIPLNITVTVEPPSGVVTVNSAGGSAGG [r6_102_JUSTAS], SAGGSAGGSAGGGAKPNQPVKVKIKYELLREEKELLPDGSVKTKKEVKVEIEGYEDADFKSAGGSAGGSAGG [r7_919_TrMRF], SAGGSAGGDNKPLRVRIRSPANGQKMKFKIKPDKIEPGKTIEIKHGDKPHTFNINPAQIDELEPSAGGSAGG [r6_461_TrROS]
